# Measurements published in IntAct's records for PubMed 18055455.
# B1: Mothers against decapentaplegic homolog 3 (Rattus norvegicus (Rat)), P84025 (parent)
# chain: MSSILPFTPPIVKRLLGWKKGEQNGQEEKWCEKAVKSLVKKLKKTGQLDELEKAITTQNVNTKCITIPRSLDGRLQVSHRKGLPHVIYCRLWRWPDLHSHHELRAMELCEFAFNMKKDEVCVNPYHYQRVETPVLPPVLVPRHTEIPAEFPPLDDYSHSIPENTNFPAGIEPQSNIPETPPPGYLSEDGETSDHQMNHSMDAGSPNLSPNPMSPAHNNLDLQPVTYCEPAFWCSISYYELNQRVGETFHASQPSMTVDGFTDPSNSERFCLGLLSNVNRNAAVELTRRHIGRGVRLYYIGGEVFAECLSDSAIFVQSPNCNQRYGWHPATVCKIPPGCNLKIFNNQEFAALLAQSVNQGFEAVYQLTRMCTIRMSFVKGWGAEYRRQTVTSTPCWIELHLNGPLQWLDKVLTQMGSPSIRCSSVS
# Variants of: B1
# Details: with ncap_sars N
row,Variant,effect of a mutation on the interaction
1,S423D;S425D,with no effect
2,S422A;S423A;S425A,with no effect
